Legend:
His-USP1 (21-785) = target: T1, His-USP1 (21-785) (human, UniProt O94782 21-785); assay: SEC-MALS
T1 sequence (looked up): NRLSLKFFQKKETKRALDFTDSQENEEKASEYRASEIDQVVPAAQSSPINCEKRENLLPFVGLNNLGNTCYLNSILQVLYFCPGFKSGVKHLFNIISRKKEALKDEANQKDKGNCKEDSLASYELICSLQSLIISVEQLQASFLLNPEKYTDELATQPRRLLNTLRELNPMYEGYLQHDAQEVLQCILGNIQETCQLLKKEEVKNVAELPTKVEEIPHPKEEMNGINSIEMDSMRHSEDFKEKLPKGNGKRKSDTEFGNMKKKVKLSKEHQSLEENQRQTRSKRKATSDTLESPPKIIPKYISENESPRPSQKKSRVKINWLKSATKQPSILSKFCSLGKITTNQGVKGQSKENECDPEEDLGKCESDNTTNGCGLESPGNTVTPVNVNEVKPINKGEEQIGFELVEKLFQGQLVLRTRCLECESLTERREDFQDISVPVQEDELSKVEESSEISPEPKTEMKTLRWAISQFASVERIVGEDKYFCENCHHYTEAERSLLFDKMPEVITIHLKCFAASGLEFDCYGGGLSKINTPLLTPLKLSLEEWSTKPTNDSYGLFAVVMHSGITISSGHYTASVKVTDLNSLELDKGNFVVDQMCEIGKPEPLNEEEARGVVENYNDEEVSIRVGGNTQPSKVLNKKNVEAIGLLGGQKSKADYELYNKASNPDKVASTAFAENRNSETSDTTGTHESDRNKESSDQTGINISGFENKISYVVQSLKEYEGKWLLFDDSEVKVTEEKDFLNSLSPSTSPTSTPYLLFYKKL

GST-USP12WT (24-370) = GST-USP12WT (24-370) (human, UniProt O75317 24-370); assay: SPR
GST-USP12WT (24-370), sequence (O75317 24-370): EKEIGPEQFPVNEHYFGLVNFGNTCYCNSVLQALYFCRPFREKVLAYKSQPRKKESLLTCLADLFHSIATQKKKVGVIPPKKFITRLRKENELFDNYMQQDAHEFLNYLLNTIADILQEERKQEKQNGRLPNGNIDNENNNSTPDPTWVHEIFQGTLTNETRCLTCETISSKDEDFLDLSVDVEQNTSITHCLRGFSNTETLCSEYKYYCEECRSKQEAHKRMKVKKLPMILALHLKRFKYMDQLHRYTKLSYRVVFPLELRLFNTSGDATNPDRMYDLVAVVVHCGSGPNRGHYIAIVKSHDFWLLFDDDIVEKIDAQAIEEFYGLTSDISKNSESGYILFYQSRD

stoichiometry N (His-USP1 (21-785)): 2 UAF1 per USP1
Kd of the second binding event (GST-USP12WT (24-370)): 325 nM
B1: UAF1FL, UAF1 (9-677) (natural protein)
chain: not shown
